Source: article PMC3355305, “Localized Dimerization and Nucleoid Binding Drive Gradient Formation by the Bacterial Cell Division Inhibitor MipZ” (Molecular Cell, 2012)

System: MipZ or its mutant derivatives (immobilized, homotypic)
Assay: SPR analysis of MipZ self-association / dimer dissociation
Type: binding, Caulobacter crescentus
Experimental: Figure 2 Biochemical Analysis of MipZ Dimerization (A) ATPase cycle of MipZ. See the main text for details. (B and C) SPR analysis of MipZ self-association. […] After the binding phase, the chip was washed with buffer lacking protein and nucleotides to follow the dissociation reaction. The rate constants (koff) determined for the dissociation of the MipZ and MipZ-D42A complexes are 0.83 min^−1 and 0.067 min^−1, respectively. (D) Nucleotide-dependent dimerization of MipZ. MipZ-D42A was incubated with ADP (blue), ATP (orange) or ATPγS (red) and subjected to size exclusion chromatography. (E) ATPase activity of MipZ and its mutant derivatives. The graph gives the average turnover rate (kapp, average turnovers/min per molecule of MipZ) of the different MipZ derivatives (6 μM). Data represent the average of at least three independent experiments (±SD). Note that consistent with a critical role of the metal cofactor in dimerization and catalysis Mg^2+ was required for ATP turnover (Figure S2H). (F) Concentration dependence of the MipZ ATPase activity. The average turnover rate of MipZ (kapp) was determined at the indicated protein concentrations. […]

B1: MipZ: P loop ATPase and cell division inhibitor of Caulobacter crescentus; hexahistidine-tagged in vitro, YFP fusion in FRAP (protein)
chain: MAETRVIVVGNEKGGAGKSTIAVHLVTALLYGGAKVAVIDLDLRQRTSARFFENRRAWLDNKKIELPEPLALNLSDNDVALAERPEEEQVAGFEAAFARAMAECDFILIDTPGGDSAITRMAHGRADLVVTPMNDSFVDFDMLGTVDPVTLELTKPSLYSLTVWEGRKQRALSGQRQAMDWVVLRNRLATTEARNRKRLEDRLNALAKRVGFRIGPGLRDRVIYRELFPFGLTIADLSPQVRPVPVSLQHLAARQELRALMHSLGLSAYSGETMLAAQ
modifications: left off: His6, end not stated, state not stated
notes: hexahistidine-tagged in vitro, YFP fusion in FRAP
dissociation rate constant (koff) of the dimeric complex (in the presence of 1 mM ATPγS): 0.003 s⁻¹
dissociation rate constant (koff) of the dimeric complex (in the presence of ATP, chip washed with buffer lacking protein and nucleotides): 0.0138 s⁻¹
